Source: patent US20170158755A1 (PROTHENA BIOSCIENCES, published 2017)
One block for each binder: values may come before it.

How the values were obtained:
[1] = molecular target: T1, human LAMA4 LG4-5 modules displayed on 293 cells (human, UniProt Q16363 1453-1821); test: flow cytometry on 293 cells displaying LAMA4 G-domain variants, anti-human-650 secondary antibody; MFI
T1 construct: pDisplay construct on 293 cells; vector tags and anchor not written here
T1 sequence: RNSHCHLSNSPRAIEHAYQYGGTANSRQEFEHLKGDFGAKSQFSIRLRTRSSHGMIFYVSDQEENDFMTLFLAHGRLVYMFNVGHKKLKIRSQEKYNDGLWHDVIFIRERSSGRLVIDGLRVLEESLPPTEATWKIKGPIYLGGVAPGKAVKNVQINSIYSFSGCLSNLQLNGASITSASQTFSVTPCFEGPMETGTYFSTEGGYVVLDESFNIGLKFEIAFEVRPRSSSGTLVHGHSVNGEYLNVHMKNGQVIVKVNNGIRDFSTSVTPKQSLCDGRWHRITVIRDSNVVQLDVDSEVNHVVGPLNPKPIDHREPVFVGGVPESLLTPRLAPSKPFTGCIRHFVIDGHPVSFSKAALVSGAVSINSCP
Description: The 19C12 variants chimeric 19C12, H1+chiL, and H2+chiL, and buffer alone were tested for their ability to block the binding of LAMA4 to its ligand MCAM (as shown in FIG. 11) and to bind LAMA4-displaying cells (full length, LG1-3, LG4-5, or untransfected control) (as shown in FIG. 12). […] To test LAMA4 binding capacity, serially diluted antibodies were pre-incubated with LAMA4-displaying human 293 cells, followed by anti-human-650 secondary antibody incubation. Fluorescent signal was assessed via flow cytometric analyses and plotted as mean fluorescence intensity (MFI).

recombinant laminin 411 [2] = molecular target: T2, recombinant laminin 411 (human, UniProt P07942 22-1786; P11047 34-1609, limits assumed); test: flow cytometric blocking assay; antibody pre-incubated with 650-labeled laminin 411; blocked partner: human MCAM on CHO cells; MFI
T2 construct: also called LAMA4 in complex with its gamma1 and beta1 chains
T2 sequence (P07942 22-1786 limits assumed, chain 2 of 2): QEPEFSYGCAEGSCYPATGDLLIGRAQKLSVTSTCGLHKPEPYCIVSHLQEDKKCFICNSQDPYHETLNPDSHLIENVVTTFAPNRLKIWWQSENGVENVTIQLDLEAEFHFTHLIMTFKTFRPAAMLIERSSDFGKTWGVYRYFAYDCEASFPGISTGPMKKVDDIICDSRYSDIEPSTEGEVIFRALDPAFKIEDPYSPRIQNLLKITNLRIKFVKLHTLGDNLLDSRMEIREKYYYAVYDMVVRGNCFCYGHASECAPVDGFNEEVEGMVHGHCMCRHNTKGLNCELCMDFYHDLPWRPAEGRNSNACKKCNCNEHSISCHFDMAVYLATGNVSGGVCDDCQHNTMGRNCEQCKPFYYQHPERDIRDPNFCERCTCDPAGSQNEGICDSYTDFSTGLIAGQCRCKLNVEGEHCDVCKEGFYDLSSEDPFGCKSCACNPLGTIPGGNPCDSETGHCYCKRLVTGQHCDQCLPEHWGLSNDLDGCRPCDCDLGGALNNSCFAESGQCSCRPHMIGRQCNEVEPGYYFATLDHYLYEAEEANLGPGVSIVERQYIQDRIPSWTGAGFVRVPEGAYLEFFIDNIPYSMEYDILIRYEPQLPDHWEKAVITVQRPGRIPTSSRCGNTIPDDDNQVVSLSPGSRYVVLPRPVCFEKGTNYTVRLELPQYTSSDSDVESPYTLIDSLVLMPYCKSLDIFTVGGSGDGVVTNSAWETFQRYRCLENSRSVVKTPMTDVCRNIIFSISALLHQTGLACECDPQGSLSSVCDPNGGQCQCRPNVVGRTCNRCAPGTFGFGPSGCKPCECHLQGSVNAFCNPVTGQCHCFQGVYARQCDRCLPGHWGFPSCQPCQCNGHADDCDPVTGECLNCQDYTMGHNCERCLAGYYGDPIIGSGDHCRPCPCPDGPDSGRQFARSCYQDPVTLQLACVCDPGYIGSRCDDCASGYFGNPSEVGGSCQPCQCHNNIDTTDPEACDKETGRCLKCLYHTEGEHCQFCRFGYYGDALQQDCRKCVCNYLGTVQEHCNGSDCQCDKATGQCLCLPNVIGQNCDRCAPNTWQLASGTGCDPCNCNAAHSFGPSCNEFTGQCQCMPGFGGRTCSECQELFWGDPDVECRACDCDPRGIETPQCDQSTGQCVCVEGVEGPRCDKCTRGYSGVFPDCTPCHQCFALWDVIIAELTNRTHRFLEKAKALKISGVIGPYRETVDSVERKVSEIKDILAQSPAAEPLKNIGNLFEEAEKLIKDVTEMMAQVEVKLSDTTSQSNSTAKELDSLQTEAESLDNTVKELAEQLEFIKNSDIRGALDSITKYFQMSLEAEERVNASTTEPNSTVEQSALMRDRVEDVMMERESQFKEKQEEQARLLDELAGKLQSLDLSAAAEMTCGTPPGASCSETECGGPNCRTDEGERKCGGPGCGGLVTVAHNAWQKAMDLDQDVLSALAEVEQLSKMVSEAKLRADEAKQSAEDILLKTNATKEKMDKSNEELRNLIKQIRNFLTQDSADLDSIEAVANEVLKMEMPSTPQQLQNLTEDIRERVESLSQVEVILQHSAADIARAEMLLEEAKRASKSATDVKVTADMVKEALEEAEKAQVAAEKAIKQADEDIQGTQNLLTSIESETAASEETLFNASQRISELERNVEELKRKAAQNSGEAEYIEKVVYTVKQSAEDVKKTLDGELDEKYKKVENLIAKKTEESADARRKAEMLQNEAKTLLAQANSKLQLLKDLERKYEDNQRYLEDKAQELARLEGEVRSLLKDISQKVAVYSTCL
T2 sequence (P11047 34-1609 limits assumed, chain 3 of 2): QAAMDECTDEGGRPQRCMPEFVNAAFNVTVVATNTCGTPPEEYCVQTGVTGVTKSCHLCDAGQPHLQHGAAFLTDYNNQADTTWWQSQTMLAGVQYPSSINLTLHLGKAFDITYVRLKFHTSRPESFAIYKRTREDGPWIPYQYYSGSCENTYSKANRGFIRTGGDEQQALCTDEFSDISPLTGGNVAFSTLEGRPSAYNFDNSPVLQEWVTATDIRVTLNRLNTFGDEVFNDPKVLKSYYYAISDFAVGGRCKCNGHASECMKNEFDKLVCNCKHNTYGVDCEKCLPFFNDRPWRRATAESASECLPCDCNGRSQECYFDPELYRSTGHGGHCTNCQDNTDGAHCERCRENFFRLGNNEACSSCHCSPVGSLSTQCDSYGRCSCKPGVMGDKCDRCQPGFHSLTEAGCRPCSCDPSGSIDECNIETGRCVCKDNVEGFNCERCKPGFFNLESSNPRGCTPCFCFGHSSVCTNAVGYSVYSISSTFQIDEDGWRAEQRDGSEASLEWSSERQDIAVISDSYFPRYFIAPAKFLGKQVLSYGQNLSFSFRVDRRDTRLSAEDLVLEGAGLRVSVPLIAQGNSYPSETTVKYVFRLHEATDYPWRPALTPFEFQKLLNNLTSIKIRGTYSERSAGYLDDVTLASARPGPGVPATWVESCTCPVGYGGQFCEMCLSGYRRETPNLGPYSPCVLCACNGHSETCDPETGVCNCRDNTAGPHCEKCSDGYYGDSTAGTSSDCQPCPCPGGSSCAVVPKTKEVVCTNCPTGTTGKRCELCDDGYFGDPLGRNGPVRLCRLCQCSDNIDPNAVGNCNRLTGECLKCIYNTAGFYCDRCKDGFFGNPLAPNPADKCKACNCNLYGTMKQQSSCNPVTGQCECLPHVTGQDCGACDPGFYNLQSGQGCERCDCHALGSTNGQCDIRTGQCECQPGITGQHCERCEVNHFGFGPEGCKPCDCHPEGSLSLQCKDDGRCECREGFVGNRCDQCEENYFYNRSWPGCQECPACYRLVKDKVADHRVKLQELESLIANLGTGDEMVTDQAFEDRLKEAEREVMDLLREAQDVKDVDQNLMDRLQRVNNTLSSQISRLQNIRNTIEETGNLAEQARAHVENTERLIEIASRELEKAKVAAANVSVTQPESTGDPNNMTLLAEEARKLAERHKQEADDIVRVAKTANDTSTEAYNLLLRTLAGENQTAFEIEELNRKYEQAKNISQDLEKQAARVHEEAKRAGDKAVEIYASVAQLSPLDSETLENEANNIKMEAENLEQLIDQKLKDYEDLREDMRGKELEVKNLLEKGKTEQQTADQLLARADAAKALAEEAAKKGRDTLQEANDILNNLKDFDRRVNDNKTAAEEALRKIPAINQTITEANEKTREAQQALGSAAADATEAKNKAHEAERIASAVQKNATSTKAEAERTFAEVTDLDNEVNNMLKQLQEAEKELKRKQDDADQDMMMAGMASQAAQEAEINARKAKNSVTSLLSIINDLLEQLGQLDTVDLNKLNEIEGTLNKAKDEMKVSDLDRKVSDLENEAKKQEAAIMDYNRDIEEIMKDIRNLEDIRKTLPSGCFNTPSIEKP
Description: The 19C12 variants chimeric 19C12, H2L3, H2L4, H2L6, H3L6, and isotype control were tested for their ability to block the binding of LAMA4 to its ligand MCAM (FIG. 15) and to bind LAMA4-displaying cells (FIG. 16). To test LAMA4 binding capacity, serially diluted antibodies were pre-incubated with LAMA4-displaying human 293 cells, followed by anti-human-650 secondary antibody incubation. […] Fluorescent signal was assessed via flow cytometric analyses and plotted as mean fluorescence intensity (MFI). All 19C12 variants retained their MCAM blocking and LAMA4 binding activity when compared with chimeric 19C12.
(§1) Following two washes with FACS buffer (1% FBS in PBS), cells were resuspended with 650-conjugated anti-pan-laminin antibody (1:1000; Novus Biologicals) and incubated for 20 min at 4° C., and washed again. Cells were analyzed for pan-laminin reactivity by flow cytometry using standard procedures.

human His-laminin-α4 = molecular target: T3, human His-laminin-α4 (human, UniProt Q16363 833-1823, limits assumed); test: Biacore SPR
T3 construct: Bought His-tagged recombinant protein (R & D Systems); also called Human LAMA4; human His-laminin-α4 (R & D Systems)
T3 sequence: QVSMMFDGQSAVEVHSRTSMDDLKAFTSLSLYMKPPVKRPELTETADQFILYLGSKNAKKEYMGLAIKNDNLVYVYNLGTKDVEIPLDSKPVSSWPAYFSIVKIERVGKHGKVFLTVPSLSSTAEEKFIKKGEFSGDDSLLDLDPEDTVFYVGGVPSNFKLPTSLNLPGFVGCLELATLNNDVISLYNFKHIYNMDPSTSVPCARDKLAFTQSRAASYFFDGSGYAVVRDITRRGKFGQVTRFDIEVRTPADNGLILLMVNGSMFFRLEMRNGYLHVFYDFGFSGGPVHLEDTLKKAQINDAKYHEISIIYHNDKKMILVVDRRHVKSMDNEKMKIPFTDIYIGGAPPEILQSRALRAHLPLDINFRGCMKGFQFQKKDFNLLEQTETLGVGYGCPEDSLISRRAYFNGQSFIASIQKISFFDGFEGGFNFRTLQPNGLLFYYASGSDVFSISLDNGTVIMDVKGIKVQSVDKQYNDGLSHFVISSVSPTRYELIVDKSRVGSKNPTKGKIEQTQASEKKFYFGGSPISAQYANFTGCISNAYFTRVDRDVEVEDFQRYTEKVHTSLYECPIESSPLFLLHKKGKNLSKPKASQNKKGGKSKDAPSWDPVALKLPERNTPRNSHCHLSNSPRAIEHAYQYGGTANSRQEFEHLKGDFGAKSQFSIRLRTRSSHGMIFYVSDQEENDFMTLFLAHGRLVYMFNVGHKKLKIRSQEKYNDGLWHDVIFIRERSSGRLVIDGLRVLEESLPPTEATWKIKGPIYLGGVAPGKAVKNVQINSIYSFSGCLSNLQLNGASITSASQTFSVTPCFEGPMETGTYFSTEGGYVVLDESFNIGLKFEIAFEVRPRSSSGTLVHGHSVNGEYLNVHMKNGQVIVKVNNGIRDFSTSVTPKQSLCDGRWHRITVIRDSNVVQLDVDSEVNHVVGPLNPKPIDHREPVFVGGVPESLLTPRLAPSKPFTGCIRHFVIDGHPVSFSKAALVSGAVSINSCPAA

mouse His-laminin-α4 [3] = molecular target: T4, mouse His-laminin-α4 (mouse, UniProt P97927 826-1816, limits assumed); test: Biacore SPR
T4 construct: Bought His-tagged recombinant protein; also called Murine LAMA4; recombinant mouse LAMA4-His
T4 sequence (looked up): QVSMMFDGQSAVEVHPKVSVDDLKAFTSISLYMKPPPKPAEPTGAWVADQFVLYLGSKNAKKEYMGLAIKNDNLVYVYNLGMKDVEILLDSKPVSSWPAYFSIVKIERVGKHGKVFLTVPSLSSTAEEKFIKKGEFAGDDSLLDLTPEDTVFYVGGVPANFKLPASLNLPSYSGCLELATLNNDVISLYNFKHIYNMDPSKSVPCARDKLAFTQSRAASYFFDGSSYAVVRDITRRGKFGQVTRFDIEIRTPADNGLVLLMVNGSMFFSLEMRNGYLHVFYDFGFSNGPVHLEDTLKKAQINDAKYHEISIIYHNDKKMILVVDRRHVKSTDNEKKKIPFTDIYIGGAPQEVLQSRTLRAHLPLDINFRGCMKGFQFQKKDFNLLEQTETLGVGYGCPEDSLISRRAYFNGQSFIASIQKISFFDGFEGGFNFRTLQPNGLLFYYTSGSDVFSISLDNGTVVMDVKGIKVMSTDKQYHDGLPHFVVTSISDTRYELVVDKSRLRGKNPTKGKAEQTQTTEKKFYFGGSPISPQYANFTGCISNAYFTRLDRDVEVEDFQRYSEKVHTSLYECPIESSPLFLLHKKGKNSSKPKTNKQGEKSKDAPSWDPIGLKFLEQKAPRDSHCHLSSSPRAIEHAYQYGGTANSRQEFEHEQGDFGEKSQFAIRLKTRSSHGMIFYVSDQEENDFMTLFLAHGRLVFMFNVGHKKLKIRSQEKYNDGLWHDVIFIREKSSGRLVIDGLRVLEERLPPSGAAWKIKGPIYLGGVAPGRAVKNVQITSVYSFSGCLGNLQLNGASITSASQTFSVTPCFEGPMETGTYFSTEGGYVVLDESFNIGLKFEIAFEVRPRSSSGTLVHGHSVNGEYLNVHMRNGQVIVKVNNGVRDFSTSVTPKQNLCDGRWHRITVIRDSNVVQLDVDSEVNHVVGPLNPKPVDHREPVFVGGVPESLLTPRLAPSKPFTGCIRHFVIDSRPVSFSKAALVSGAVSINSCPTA

[4] = molecular target: T5, human LAMA4 G domain (LG1-5) displayed on 293 cells (human, UniProt Q16363 830-1821); test: LAMA4 pDisplay flow cytometric blocking assay on LAMA4-displaying 293 cells; blocked ligand: 650-conjugated mouse MCAM-Fc
T5 construct: the vector's tags and membrane anchor are not written here; also called LAMA4-displaying human 293 cells; full length
T5 sequence: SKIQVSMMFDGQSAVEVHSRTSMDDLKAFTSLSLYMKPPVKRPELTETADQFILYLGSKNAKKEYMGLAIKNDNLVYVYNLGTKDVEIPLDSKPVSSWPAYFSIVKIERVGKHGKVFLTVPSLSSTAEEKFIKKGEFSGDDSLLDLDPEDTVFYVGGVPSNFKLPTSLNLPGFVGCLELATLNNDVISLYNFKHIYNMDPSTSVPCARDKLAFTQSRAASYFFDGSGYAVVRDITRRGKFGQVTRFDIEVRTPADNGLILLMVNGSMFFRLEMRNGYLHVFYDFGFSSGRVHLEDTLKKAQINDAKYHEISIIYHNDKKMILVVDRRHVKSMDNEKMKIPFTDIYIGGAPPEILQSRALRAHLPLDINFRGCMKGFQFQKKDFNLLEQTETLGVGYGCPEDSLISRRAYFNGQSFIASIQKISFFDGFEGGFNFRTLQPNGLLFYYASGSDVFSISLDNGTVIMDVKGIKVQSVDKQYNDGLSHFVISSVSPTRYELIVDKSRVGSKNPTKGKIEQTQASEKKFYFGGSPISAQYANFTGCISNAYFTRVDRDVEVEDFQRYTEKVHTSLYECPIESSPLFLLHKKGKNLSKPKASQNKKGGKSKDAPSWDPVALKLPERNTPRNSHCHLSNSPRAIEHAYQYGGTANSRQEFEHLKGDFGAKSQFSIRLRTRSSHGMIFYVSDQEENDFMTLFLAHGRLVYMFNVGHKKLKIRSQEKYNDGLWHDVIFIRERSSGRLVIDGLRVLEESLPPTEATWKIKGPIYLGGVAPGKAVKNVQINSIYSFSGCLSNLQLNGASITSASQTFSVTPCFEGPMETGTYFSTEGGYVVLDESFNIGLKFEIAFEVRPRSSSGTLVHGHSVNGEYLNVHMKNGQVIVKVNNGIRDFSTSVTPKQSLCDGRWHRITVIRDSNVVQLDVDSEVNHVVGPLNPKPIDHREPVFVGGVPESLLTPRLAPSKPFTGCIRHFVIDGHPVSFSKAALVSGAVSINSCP

recombinant laminin 411 [5] = molecular target: T2, recombinant laminin 411; test: hMCAM.CHO flow cytometric blocking assay; antibody pre-incubated with laminin 411; blocked partner: human MCAM on CHO cells
Description: The monoclonal antibodies against LAMA4 were tested for their ability to block the binding of LAMA4 to its ligand MCAM. IgG control antibody, 1C1, 5Al2, 5B5, 19C12, and 12D3 were pre-incubated with recombinant LAMA4 protein, LAMA4-positive healthy mouse brain tissue, or LAMA4-displaying human 293 cells. […] For the mouse brain tissue blocking assay, antibodies were used at concentrations of 2.5 ug/ml or 0.04 ug/ml.
as §1

mouse His-laminin-α4 [6] = molecular target: T4, mouse His-laminin-α4; test: ELISA hMCAM-Fc capture blocking assay; antibody pre-incubated with mouse LAMA4-His; blocked partner: captured hMCAM-Fc

binding result [1]: no binding (tested: 5 ug/ml)
IC50 (read off the curve) (recombinant laminin 411 [2]): ~0.7 µg/mL
B1: chimeric 19C12 antibody (antibody, V domains shown)
VH: QVQLQQSGAELVKPGASVKISCKASGYAFSTYWMNWVKQRPGEGLEWIGQIYPGDGDTNYNGKFKGKATLTADKSSSTAYMQLSSLTSEDSAVYFCARSDGYYDYWGQGTTLTVSS
VL: NIVLTQSPASLAVSLGQRATISCRASESVDSYGTSFMHWYQQKPGQPPKLLICLASSLESGVPARFSGSGSRTDFTLTIDPVEADDAATYYCQQNNEDPPTFGAGTKLELKR
notes: Mouse 19C12 variable regions with human constant regions (captured by anti-human Fc, detected by anti-human secondary); also called chi19C12; 19C12 chi

Kd (human His-laminin-α4): 10.9 nM
koff (human His-laminin-α4): 0.00791 s⁻¹
kon (human His-laminin-α4): 723000 M⁻¹ s⁻¹
Kd (mouse His-laminin-α4 [3]): 10.3 nM
koff (mouse His-laminin-α4 [3]): 0.00815 s⁻¹
kon (mouse His-laminin-α4 [3]): 795000 M⁻¹ s⁻¹
IC50 (read off the curve) [4]: ~0.1 µg/mL
IC50 (read off the curve) (recombinant laminin 411 [5]): ~0.06 µg/mL
IC50 (read off the curve) (mouse His-laminin-α4 [6]): ~0.2 µg/mL
B2: mouse monoclonal antibody 5A12 (antibody, V domains shown)
VH: QVQLQQPGAELVKPGASVKLSCKASGYTFTSYWMHWVKQRPGRGLEWIGRIDPNSGGTKHNEKFKSKATLTVDKPSSTAYMQLSSLTSEDSAVYYCAGSPSYYDYALHYAMDYWGQGTSVTVSS
VL: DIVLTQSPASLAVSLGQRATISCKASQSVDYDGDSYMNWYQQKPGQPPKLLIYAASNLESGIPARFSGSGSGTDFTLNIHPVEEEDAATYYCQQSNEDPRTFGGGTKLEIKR
notes: version 1 is written here; also called 5Al2
